This note sets out measurements from paper PMC6686035.

Series [1] addresses CsrA-His6 (Escherichia coli) (UniProt P69913). Nature of the series: EMSA. Conditions: EMSA: 0.5 nM RNA, 10 mM MgCl2, 100 mM KCl, 32.5 ng yeast RNA, 20 mM DTT, 7.5% glycerol, 4 U SUPERasin, 37 C 30 min (pH not stated), footprint: 2 nM RNA. For orientation: Mobility shift assays separate free from complexed probe on a gel.
Series [2] shares this target. Briefly: RNase T1 footprinting. Conditions: EMSA: 0.5 nM RNA, 10 mM MgCl2, 100 mM KCl, 32.5 ng yeast RNA, 20 mM DTT, 7.5% glycerol, 4 U SUPERasin, 37 C 30 min (pH not stated), footprint: 2 nM RNA.

Chain of CsrA-His6 (Escherichia coli) (P69913 whole entry): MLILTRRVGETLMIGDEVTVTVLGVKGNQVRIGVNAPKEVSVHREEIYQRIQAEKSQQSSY

As to ftnB EMSA transcript, the Kd in series [1] is 0.013 µM.
“GGGAUCAUCGUCAGAAUUGACUCCACGAUCACAUUUCGGACCGGCAGAAAGGAAUUAUUCUGCAAACAGUAAUUAUGGUGUUUUGAUUUAUCUUGCACCUCUCCACUUCUGGAUAUAAGGAUAUUAGGUAUGGCAACCGCUGGAAUGCUUCUCAAGGAUCC [ftnB footprint RNA (+1 to +152)]”: the binding entry in series [2] is reported as “binds”.
As for bfr EMSA transcript, the Kd in series [1] (10 mM Mg2+, apparent KD, cooperative equation, single shift) was 0.027 µM.
For “GGGUGGAAGCGAAGGAGUCAAAAAAUGAAAGGUGAUACUAAAGUUAUAAAUUAUCUCAACAAACUGUUGGGAAAUGAGCUUGU [bfr EMSA transcript]”, the Kd in series [1] came to 0.027 µM.
“GAAGAUCAUCGUCAGAAUUGACUCCACGAUCACAUUUCGGACCGGCAGAAAGGAAUUAUUCUGCAAACAGUAAUUAUGGUGUUUUGAUUUAUCUUGCACCUCUCCACUUCUGGAUAUAAGGAUAUUAGGU [ftnB EMSA transcript]” had a Kd in series [1] of 0.013 µM.
